Target: dengue poly-immunoglobulin G scaffold (D-PIGS), unfractionated, from ∆XF N. benthamiana
Experiment: SPR; Biacore X100, affinity layout: 200 RU of D-PIGS (unfractionated) or hIgG1 captured on immobilised protein A (CM5 chip); CD16a or CD64 injected as analyte, 12.5 to 800 nM, contact 60 s, 50 uL/min, dissociation 200 s; two-state model for CD16a, 1:1 model for CD64

## recombinant human CD16a (from UniProt P08637 17-208) (receptor)
  Kd: 24.8 nM
